Experimental data taken from paper PMC8979966.

B1: TCR 868 CDR3-alpha fragment GAHDYALN, as printed (the 868 form used here; an outside source, not checked, gives natural 868 a different CDR3-alpha) (parent)
chain: GAHDYALN

Variants of: B1
Assay: YAMTAD yeast mating, deep sequencing; 2 biological x 4 technical repeats
Conditions: with SL9 ([…]) on HLA-A*02:01, single chain; S. cerevisiae mating; SL9 group vs negative-control group; higher = more enriched with SL9 than with the negative controls; the paper calls a variant enriched at SL9/NC > 1 and P < 0.05; unresolved parent; not an affinity; keep out of graded; scale: ratio 'SL9/NC': mean frequency in the SL9-HLA-A*02:01 group / mean frequency in the sheet's 'NC' group, each normalised …; numbering: sequential-on-construct, sequence starts at 1

In order of falling screen value:
1. LAHDYALN  1.21
2. GACDYALN  1.13
3. GLHDYALN  1.06
